Laboratory results reported in patent US20230357348A1 (AstraZeneca / MedImmune, published 2023).
Starred links: 1 amine or outer side, 2 acyl side, 3 side chain; linkers in the order of their positions; H or OH if unused. Non-standard residues stand in square brackets, D forms with d. Groups on a side chain read outwards from the residue. No end group written: not given here. *: point of attachment. C20 diacid = O=C(O)CCCCCCCCCCCCCCCCCCC(=O)*; C18 diacid = O=C(O)CCCCCCCCCCCCCCCCC(=O)*; γGlu = O=C(O)[C@H](CCC(=O)[*:2])N[*:1]; αMeF = C[C@](N)(Cc1ccccc1)C(=O)O; AEEA = NCCOCCOCC(=O)O; Aib = CC(C)(N)C(=O)O

B1: Peptide 499 (peptide)
peptide: H[Aib]QGTFTSDVSK[αMeF]LDTK([AEEA-AEEA-γGlu-C18 diacid])RAQDFVQWLLR[Aib]A-OH
modifications: N-terminus assumed
SMILES: CC(C)C[C@H](NC(=O)[C@H](Cc1c[nH]c2ccccc12)NC(=O)[C@H](CCC(N)=O)NC(=O)[C@@H](NC(=O)[C@H](Cc1ccccc1)NC(=O)[C@H](CC(=O)O)NC(=O)[C@H](CCC(N)=O)NC(=O)[C@H](C)NC(=O)[C@H](CCCNC(=N)N)NC(=O)[C@H](CCCCNC(=O)COCCOCCNC(=O)COCCOCCNC(=O)CC[C@H](NC(=O)CCCCCCCCCCCCCCCCC(=O)O)C(=O)O)NC(=O)[C@@H](NC(=O)[C@H](CC(=O)O)NC(=O)[C@H](CC(C)C)NC(=O)[C@](C)(Cc1ccccc1)NC(=O)[C@H](CCCCN)NC(=O)[C@H](CO)NC(=O)[C@@H](NC(=O)[C@H](CC(=O)O)NC(=O)[C@H](CO)NC(=O)[C@@H](NC(=O)[C@H](Cc1ccccc1)NC(=O)[C@@H](NC(=O)CNC(=O)[C@H](CCC(N)=O)NC(=O)C(C)(C)NC(=O)[C@@H](N)Cc1c[nH]cn1)[C@@H](C)O)[C@@H](C)O)C(C)C)[C@@H](C)O)C(C)C)C(=O)N[C@@H](CC(C)C)C(=O)N[C@@H](CCCNC(=N)N)C(=O)NC(C)(C)C(=O)N[C@@H](C)C(=O)O
B2: Peptide 496 (peptide)
peptide: H[Aib]QGTFTSDVSK[αMeF]LDTK([AEEA-AEEA-γGlu-C20 diacid])RAQDFVRWLLR[Aib]K-NH2
modifications: N-terminus assumed
SMILES: CC(C)C[C@H](NC(=O)[C@H](Cc1c[nH]c2ccccc12)NC(=O)[C@H](CCCNC(=N)N)NC(=O)[C@@H](NC(=O)[C@H](Cc1ccccc1)NC(=O)[C@H](CC(=O)O)NC(=O)[C@H](CCC(N)=O)NC(=O)[C@H](C)NC(=O)[C@H](CCCNC(=N)N)NC(=O)[C@H](CCCCNC(=O)COCCOCCNC(=O)COCCOCCNC(=O)CC[C@H](NC(=O)CCCCCCCCCCCCCCCCCCC(=O)O)C(=O)O)NC(=O)[C@@H](NC(=O)[C@H](CC(=O)O)NC(=O)[C@H](CC(C)C)NC(=O)[C@](C)(Cc1ccccc1)NC(=O)[C@H](CCCCN)NC(=O)[C@H](CO)NC(=O)[C@@H](NC(=O)[C@H](CC(=O)O)NC(=O)[C@H](CO)NC(=O)[C@@H](NC(=O)[C@H](Cc1ccccc1)NC(=O)[C@@H](NC(=O)CNC(=O)[C@H](CCC(N)=O)NC(=O)C(C)(C)NC(=O)[C@@H](N)Cc1c[nH]cn1)[C@@H](C)O)[C@@H](C)O)C(C)C)[C@@H](C)O)C(C)C)C(=O)N[C@@H](CC(C)C)C(=O)N[C@@H](CCCNC(=N)N)C(=O)NC(C)(C)C(=O)N[C@@H](CCCCN)C(N)=O
B3: Peptide 500 (peptide)
peptide: H[Aib]QGTFTSDVSK[αMeF]LDTK([AEEA-AEEA-γGlu-C20 diacid])RAQDFVQWLLR[Aib]A-OH
modifications: N-terminus assumed
SMILES: CC(C)C[C@H](NC(=O)[C@H](Cc1c[nH]c2ccccc12)NC(=O)[C@H](CCC(N)=O)NC(=O)[C@@H](NC(=O)[C@H](Cc1ccccc1)NC(=O)[C@H](CC(=O)O)NC(=O)[C@H](CCC(N)=O)NC(=O)[C@H](C)NC(=O)[C@H](CCCNC(=N)N)NC(=O)[C@H](CCCCNC(=O)COCCOCCNC(=O)COCCOCCNC(=O)CC[C@H](NC(=O)CCCCCCCCCCCCCCCCCCC(=O)O)C(=O)O)NC(=O)[C@@H](NC(=O)[C@H](CC(=O)O)NC(=O)[C@H](CC(C)C)NC(=O)[C@](C)(Cc1ccccc1)NC(=O)[C@H](CCCCN)NC(=O)[C@H](CO)NC(=O)[C@@H](NC(=O)[C@H](CC(=O)O)NC(=O)[C@H](CO)NC(=O)[C@@H](NC(=O)[C@H](Cc1ccccc1)NC(=O)[C@@H](NC(=O)CNC(=O)[C@H](CCC(N)=O)NC(=O)C(C)(C)NC(=O)[C@@H](N)Cc1c[nH]cn1)[C@@H](C)O)[C@@H](C)O)C(C)C)[C@@H](C)O)C(C)C)C(=O)N[C@@H](CC(C)C)C(=O)N[C@@H](CCCNC(=N)N)C(=O)NC(C)(C)C(=O)N[C@@H](C)C(=O)O
B4: Peptide 502 (peptide)
peptide: H[Aib]QGTFTSDVSK[αMeF]LDTK([AEEA-AEEA-γGlu-C20 diacid])RARDFVQWLLR[Aib]A-OH
modifications: N-terminus assumed
SMILES: CC(C)C[C@H](NC(=O)[C@H](Cc1c[nH]c2ccccc12)NC(=O)[C@H](CCC(N)=O)NC(=O)[C@@H](NC(=O)[C@H](Cc1ccccc1)NC(=O)[C@H](CC(=O)O)NC(=O)[C@H](CCCNC(=N)N)NC(=O)[C@H](C)NC(=O)[C@H](CCCNC(=N)N)NC(=O)[C@H](CCCCNC(=O)COCCOCCNC(=O)COCCOCCNC(=O)CC[C@H](NC(=O)CCCCCCCCCCCCCCCCCCC(=O)O)C(=O)O)NC(=O)[C@@H](NC(=O)[C@H](CC(=O)O)NC(=O)[C@H](CC(C)C)NC(=O)[C@](C)(Cc1ccccc1)NC(=O)[C@H](CCCCN)NC(=O)[C@H](CO)NC(=O)[C@@H](NC(=O)[C@H](CC(=O)O)NC(=O)[C@H](CO)NC(=O)[C@@H](NC(=O)[C@H](Cc1ccccc1)NC(=O)[C@@H](NC(=O)CNC(=O)[C@H](CCC(N)=O)NC(=O)C(C)(C)NC(=O)[C@@H](N)Cc1c[nH]cn1)[C@@H](C)O)[C@@H](C)O)C(C)C)[C@@H](C)O)C(C)C)C(=O)N[C@@H](CC(C)C)C(=O)N[C@@H](CCCNC(=N)N)C(=O)NC(C)(C)C(=O)N[C@@H](C)C(=O)O
B5: Peptide 498 (peptide)
peptide: H[Aib]QGTFTSDVSK[αMeF]LDTK([AEEA-AEEA-γGlu-C20 diacid])RAQDFVRWLLR[Aib]A-OH
modifications: N-terminus assumed
SMILES: CC(C)C[C@H](NC(=O)[C@H](Cc1c[nH]c2ccccc12)NC(=O)[C@H](CCCNC(=N)N)NC(=O)[C@@H](NC(=O)[C@H](Cc1ccccc1)NC(=O)[C@H](CC(=O)O)NC(=O)[C@H](CCC(N)=O)NC(=O)[C@H](C)NC(=O)[C@H](CCCNC(=N)N)NC(=O)[C@H](CCCCNC(=O)COCCOCCNC(=O)COCCOCCNC(=O)CC[C@H](NC(=O)CCCCCCCCCCCCCCCCCCC(=O)O)C(=O)O)NC(=O)[C@@H](NC(=O)[C@H](CC(=O)O)NC(=O)[C@H](CC(C)C)NC(=O)[C@](C)(Cc1ccccc1)NC(=O)[C@H](CCCCN)NC(=O)[C@H](CO)NC(=O)[C@@H](NC(=O)[C@H](CC(=O)O)NC(=O)[C@H](CO)NC(=O)[C@@H](NC(=O)[C@H](Cc1ccccc1)NC(=O)[C@@H](NC(=O)CNC(=O)[C@H](CCC(N)=O)NC(=O)C(C)(C)NC(=O)[C@@H](N)Cc1c[nH]cn1)[C@@H](C)O)[C@@H](C)O)C(C)C)[C@@H](C)O)C(C)C)C(=O)N[C@@H](CC(C)C)C(=O)N[C@@H](CCCNC(=N)N)C(=O)NC(C)(C)C(=O)N[C@@H](C)C(=O)O
B6: Peptide 501 (peptide)
peptide: H[Aib]QGTFTSDVSK[αMeF]LDTK([AEEA-AEEA-γGlu-C18 diacid])RARDFVQWLLR[Aib]A-OH
modifications: N-terminus assumed
SMILES: CC(C)C[C@H](NC(=O)[C@H](Cc1c[nH]c2ccccc12)NC(=O)[C@H](CCC(N)=O)NC(=O)[C@@H](NC(=O)[C@H](Cc1ccccc1)NC(=O)[C@H](CC(=O)O)NC(=O)[C@H](CCCNC(=N)N)NC(=O)[C@H](C)NC(=O)[C@H](CCCNC(=N)N)NC(=O)[C@H](CCCCNC(=O)COCCOCCNC(=O)COCCOCCNC(=O)CC[C@H](NC(=O)CCCCCCCCCCCCCCCCC(=O)O)C(=O)O)NC(=O)[C@@H](NC(=O)[C@H](CC(=O)O)NC(=O)[C@H](CC(C)C)NC(=O)[C@](C)(Cc1ccccc1)NC(=O)[C@H](CCCCN)NC(=O)[C@H](CO)NC(=O)[C@@H](NC(=O)[C@H](CC(=O)O)NC(=O)[C@H](CO)NC(=O)[C@@H](NC(=O)[C@H](Cc1ccccc1)NC(=O)[C@@H](NC(=O)CNC(=O)[C@H](CCC(N)=O)NC(=O)C(C)(C)NC(=O)[C@@H](N)Cc1c[nH]cn1)[C@@H](C)O)[C@@H](C)O)C(C)C)[C@@H](C)O)C(C)C)C(=O)N[C@@H](CC(C)C)C(=O)N[C@@H](CCCNC(=N)N)C(=O)NC(C)(C)C(=O)N[C@@H](C)C(=O)O
B7: Peptide 497 (peptide)
peptide: H[Aib]QGTFTSDVSK[αMeF]LDTK([AEEA-AEEA-γGlu-C18 diacid])RAQDFVRWLLR[Aib]A-OH
modifications: N-terminus assumed
SMILES: CC(C)C[C@H](NC(=O)[C@H](Cc1c[nH]c2ccccc12)NC(=O)[C@H](CCCNC(=N)N)NC(=O)[C@@H](NC(=O)[C@H](Cc1ccccc1)NC(=O)[C@H](CC(=O)O)NC(=O)[C@H](CCC(N)=O)NC(=O)[C@H](C)NC(=O)[C@H](CCCNC(=N)N)NC(=O)[C@H](CCCCNC(=O)COCCOCCNC(=O)COCCOCCNC(=O)CC[C@H](NC(=O)CCCCCCCCCCCCCCCCC(=O)O)C(=O)O)NC(=O)[C@@H](NC(=O)[C@H](CC(=O)O)NC(=O)[C@H](CC(C)C)NC(=O)[C@](C)(Cc1ccccc1)NC(=O)[C@H](CCCCN)NC(=O)[C@H](CO)NC(=O)[C@@H](NC(=O)[C@H](CC(=O)O)NC(=O)[C@H](CO)NC(=O)[C@@H](NC(=O)[C@H](Cc1ccccc1)NC(=O)[C@@H](NC(=O)CNC(=O)[C@H](CCC(N)=O)NC(=O)C(C)(C)NC(=O)[C@@H](N)Cc1c[nH]cn1)[C@@H](C)O)[C@@H](C)O)C(C)C)[C@@H](C)O)C(C)C)C(=O)N[C@@H](CC(C)C)C(=O)N[C@@H](CCCNC(=N)N)C(=O)NC(C)(C)C(=O)N[C@@H](C)C(=O)O

Assays:
[1] = target: human GLP-1 receptor (hGLP-1R) (human, UniProt P43220 24-463); assay: cell-based or functional assay
[2] = target: human glucagon receptor (hGCGR) (human, UniProt P47871 26-477); assay: cell-based or functional assay
human glucagon receptor (hGCGR), sequence (P47871 26-477): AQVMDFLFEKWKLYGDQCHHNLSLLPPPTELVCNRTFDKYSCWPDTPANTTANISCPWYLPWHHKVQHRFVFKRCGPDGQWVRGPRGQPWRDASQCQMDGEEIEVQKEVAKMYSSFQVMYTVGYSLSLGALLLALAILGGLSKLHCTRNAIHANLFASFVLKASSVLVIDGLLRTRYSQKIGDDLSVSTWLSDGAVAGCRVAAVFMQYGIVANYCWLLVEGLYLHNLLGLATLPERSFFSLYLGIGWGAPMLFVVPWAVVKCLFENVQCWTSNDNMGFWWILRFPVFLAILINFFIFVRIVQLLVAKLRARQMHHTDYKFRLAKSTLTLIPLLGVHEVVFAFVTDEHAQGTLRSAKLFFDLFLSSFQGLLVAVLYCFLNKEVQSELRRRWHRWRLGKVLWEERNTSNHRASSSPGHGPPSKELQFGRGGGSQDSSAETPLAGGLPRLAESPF

| hGLP-1R EC50 (pM) [1] [pM] | hGluc-R EC50 (pM) [2] [pM] | Binder |
| --- | --- | --- |
| 40.6 | 78.8 | B1 |
| 64.9 | 482 | B2 |
| 102 | 101 | B3 |
| 82.1 | 175 | B4 |
| 156 | 170 | B5 |
| 26.5 | 75.6 | B6 |
| 37.4 | 118 | B7 |
| 81.2 | 84.9 | H[Aib]QGTFTSDVSK[αMeF]LDTK([AEEA-AEEA-γGlu-C20 diacid])RAQDFVRWLLE[Aib]K-OH [Peptide 503] |
